Measured values reported in US20150299281A1 (ZEALAND PHARMA A S, published 2015).
Numbered stars: 1 amine (or outer) side, 2 acyl side, 3 side chain; on linkers, the order of the positions; unused ones are H or OH. Square brackets hold non-standard residues; d marks the D form. Side chains are listed from the residue outwards. * marks the point of attachment. γGlu = O=C(O)[C@H](CCC(=O)[*:2])N[*:1]; Palmitoyl = CCCCCCCCCCCCCCCC(=O)*; Aib = CC(C)(N)C(=O)O

T1: human GIP receptor (human, UniProt P48546 22-466)
T1 sequence (looked up): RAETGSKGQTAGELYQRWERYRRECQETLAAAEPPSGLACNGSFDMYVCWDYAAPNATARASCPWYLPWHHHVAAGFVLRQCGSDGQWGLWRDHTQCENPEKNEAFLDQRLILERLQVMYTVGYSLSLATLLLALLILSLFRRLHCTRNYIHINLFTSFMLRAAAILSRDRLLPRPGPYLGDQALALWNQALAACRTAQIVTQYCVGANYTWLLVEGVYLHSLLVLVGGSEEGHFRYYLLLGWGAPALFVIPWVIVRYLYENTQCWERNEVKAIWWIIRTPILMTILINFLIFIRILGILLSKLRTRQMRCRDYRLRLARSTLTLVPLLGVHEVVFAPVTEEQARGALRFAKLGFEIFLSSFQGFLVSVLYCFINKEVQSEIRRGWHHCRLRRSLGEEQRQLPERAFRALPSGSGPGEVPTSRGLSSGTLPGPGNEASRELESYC


Key:
human GIP receptor = biological target: T1, human GIP receptor; assay: cell-based or functional assay
human GLP-1 receptor = human GLP-1 receptor (human, UniProt P43220 24-463); assay: cell-based or functional assay

Row | Binder | EC50, cAMP induction in HEK293 cells expressing human GIP R (human GIP receptor) [pM] | EC50, cAMP induction in HEK293 cells expressing human GLP-1 R (human GLP-1 receptor) [pM]
1 | H-Y[Aib]EGTFTSDYSIYLESKAAHDFVEWLLSA-NH2 (SMILES CC[C@H](C)[C@H](NC(=O)[C@H](CO)NC(=O)[C@H](Cc1ccc(O)cc1)NC(=O)[C@H](CC(=O)O)NC(=O)[C@H](CO)NC(=O)[C@@H](NC(=O)[C@H](Cc1ccccc1)NC(=O)[C@@H](NC(=O)CNC(=O)[C@H](CCC(=O)O)NC(=O)C(C)(C)NC(=O)[C@@H](N)Cc1ccc(O)cc1)[C@@H](C)O)[C@@H](C)O)C(=O)N[C@@H](Cc1ccc(O)cc1)C(=O)N[C@@H](CC(C)C)C(=O)N[C@@H](CCC(=O)O)C(=O)N[C@@H](CO)C(=O)N[C@@H](CCCCN)C(=O)N[C@@H](C)C(=O)N[C@@H](C)C(=O)N[C@@H](Cc1c[nH]cn1)C(=O)N[C@@H](CC(=O)O)C(=O)N[C@@H](Cc1ccccc1)C(=O)N[C@H](C(=O)N[C@@H](CCC(=O)O)C(=O)N[C@@H](Cc1c[nH]c2ccccc12)C(=O)N[C@@H](CC(C)C)C(=O)N[C@@H](CC(C)C)C(=O)N[C@@H](CO)C(=O)N[C@@H](C)C(N)=O)C(C)C) [Compound 41] | 13 | 11
2 | H-Y[Aib]EGTFTSDYSIYLDKKAAHDFVEWLLSA-NH2 (SMILES CC[C@H](C)[C@H](NC(=O)[C@H](CO)NC(=O)[C@H](Cc1ccc(O)cc1)NC(=O)[C@H](CC(=O)O)NC(=O)[C@H](CO)NC(=O)[C@@H](NC(=O)[C@H](Cc1ccccc1)NC(=O)[C@@H](NC(=O)CNC(=O)[C@H](CCC(=O)O)NC(=O)C(C)(C)NC(=O)[C@@H](N)Cc1ccc(O)cc1)[C@@H](C)O)[C@@H](C)O)C(=O)N[C@@H](Cc1ccc(O)cc1)C(=O)N[C@@H](CC(C)C)C(=O)N[C@@H](CC(=O)O)C(=O)N[C@@H](CCCCN)C(=O)N[C@@H](CCCCN)C(=O)N[C@@H](C)C(=O)N[C@@H](C)C(=O)N[C@@H](Cc1c[nH]cn1)C(=O)N[C@@H](CC(=O)O)C(=O)N[C@@H](Cc1ccccc1)C(=O)N[C@H](C(=O)N[C@@H](CCC(=O)O)C(=O)N[C@@H](Cc1c[nH]c2ccccc12)C(=O)N[C@@H](CC(C)C)C(=O)N[C@@H](CC(C)C)C(=O)N[C@@H](CO)C(=O)N[C@@H](C)C(N)=O)C(C)C) [Compound 42] | 7 | 12
3 | H-Y[Aib]EGTFTSDYSIYLEKKAAKEFVEWLLSA-NH2 (SMILES CC[C@H](C)[C@H](NC(=O)[C@H](CO)NC(=O)[C@H](Cc1ccc(O)cc1)NC(=O)[C@H](CC(=O)O)NC(=O)[C@H](CO)NC(=O)[C@@H](NC(=O)[C@H](Cc1ccccc1)NC(=O)[C@@H](NC(=O)CNC(=O)[C@H](CCC(=O)O)NC(=O)C(C)(C)NC(=O)[C@@H](N)Cc1ccc(O)cc1)[C@@H](C)O)[C@@H](C)O)C(=O)N[C@@H](Cc1ccc(O)cc1)C(=O)N[C@@H](CC(C)C)C(=O)N[C@@H](CCC(=O)O)C(=O)N[C@@H](CCCCN)C(=O)N[C@@H](CCCCN)C(=O)N[C@@H](C)C(=O)N[C@@H](C)C(=O)N[C@@H](CCCCN)C(=O)N[C@@H](CCC(=O)O)C(=O)N[C@@H](Cc1ccccc1)C(=O)N[C@H](C(=O)N[C@@H](CCC(=O)O)C(=O)N[C@@H](Cc1c[nH]c2ccccc12)C(=O)N[C@@H](CC(C)C)C(=O)N[C@@H](CC(C)C)C(=O)N[C@@H](CO)C(=O)N[C@@H](C)C(N)=O)C(C)C) [Compound 43] | 9.1 | 17
4 | H-Y[Aib]EGTFTSDYSIYLDSKAAHDFVEWLLRA-NH2 (SMILES CC[C@H](C)[C@H](NC(=O)[C@H](CO)NC(=O)[C@H](Cc1ccc(O)cc1)NC(=O)[C@H](CC(=O)O)NC(=O)[C@H](CO)NC(=O)[C@@H](NC(=O)[C@H](Cc1ccccc1)NC(=O)[C@@H](NC(=O)CNC(=O)[C@H](CCC(=O)O)NC(=O)C(C)(C)NC(=O)[C@@H](N)Cc1ccc(O)cc1)[C@@H](C)O)[C@@H](C)O)C(=O)N[C@@H](Cc1ccc(O)cc1)C(=O)N[C@@H](CC(C)C)C(=O)N[C@@H](CC(=O)O)C(=O)N[C@@H](CO)C(=O)N[C@@H](CCCCN)C(=O)N[C@@H](C)C(=O)N[C@@H](C)C(=O)N[C@@H](Cc1c[nH]cn1)C(=O)N[C@@H](CC(=O)O)C(=O)N[C@@H](Cc1ccccc1)C(=O)N[C@H](C(=O)N[C@@H](CCC(=O)O)C(=O)N[C@@H](Cc1c[nH]c2ccccc12)C(=O)N[C@@H](CC(C)C)C(=O)N[C@@H](CC(C)C)C(=O)N[C@@H](CCCNC(=N)N)C(=O)N[C@@H](C)C(N)=O)C(C)C) [Compound 44] | 16 | 13
5 | H-Y[Aib]EGTFTSDYSKYLDSK([γGlu-Palmitoyl])AAHDFVEWLLSA-NH2 (SMILES CCCCCCCCCCCCCCCC(=O)N[C@@H](CCC(=O)NCCCC[C@H](NC(=O)[C@H](CO)NC(=O)[C@H](CC(=O)O)NC(=O)[C@H](CC(C)C)NC(=O)[C@H](Cc1ccc(O)cc1)NC(=O)[C@H](CCCCN)NC(=O)[C@H](CO)NC(=O)[C@H](Cc1ccc(O)cc1)NC(=O)[C@H](CC(=O)O)NC(=O)[C@H](CO)NC(=O)[C@@H](NC(=O)[C@H](Cc1ccccc1)NC(=O)[C@@H](NC(=O)CNC(=O)[C@H](CCC(=O)O)NC(=O)C(C)(C)NC(=O)[C@@H](N)Cc1ccc(O)cc1)[C@@H](C)O)[C@@H](C)O)C(=O)N[C@@H](C)C(=O)N[C@@H](C)C(=O)N[C@@H](Cc1c[nH]cn1)C(=O)N[C@@H](CC(=O)O)C(=O)N[C@@H](Cc1ccccc1)C(=O)N[C@H](C(=O)N[C@@H](CCC(=O)O)C(=O)N[C@@H](Cc1c[nH]c2ccccc12)C(=O)N[C@@H](CC(C)C)C(=O)N[C@@H](CC(C)C)C(=O)N[C@@H](CO)C(=O)N[C@@H](C)C(N)=O)C(C)C)C(=O)O) [Compound 45] | 320 | 110
6 | H-Y[Aib]EGTFTSDYSIYLEKK([γGlu-Palmitoyl])AAKEFVEWLLSA-NH2 (SMILES CCCCCCCCCCCCCCCC(=O)N[C@@H](CCC(=O)NCCCC[C@H](NC(=O)[C@H](CCCCN)NC(=O)[C@H](CCC(=O)O)NC(=O)[C@H](CC(C)C)NC(=O)[C@H](Cc1ccc(O)cc1)NC(=O)[C@@H](NC(=O)[C@H](CO)NC(=O)[C@H](Cc1ccc(O)cc1)NC(=O)[C@H](CC(=O)O)NC(=O)[C@H](CO)NC(=O)[C@@H](NC(=O)[C@H](Cc1ccccc1)NC(=O)[C@@H](NC(=O)CNC(=O)[C@H](CCC(=O)O)NC(=O)C(C)(C)NC(=O)[C@@H](N)Cc1ccc(O)cc1)[C@@H](C)O)[C@@H](C)O)[C@@H](C)CC)C(=O)N[C@@H](C)C(=O)N[C@@H](C)C(=O)N[C@@H](CCCCN)C(=O)N[C@@H](CCC(=O)O)C(=O)N[C@@H](Cc1ccccc1)C(=O)N[C@H](C(=O)N[C@@H](CCC(=O)O)C(=O)N[C@@H](Cc1c[nH]c2ccccc12)C(=O)N[C@@H](CC(C)C)C(=O)N[C@@H](CC(C)C)C(=O)N[C@@H](CO)C(=O)N[C@@H](C)C(N)=O)C(C)C)C(=O)O) [Compound 46] | 88 | 48
7 | H-Y[Aib]EGTFTSDYSIYLDSK([γGlu-Palmitoyl])AAHDFVEWLLRA-NH2 (SMILES CCCCCCCCCCCCCCCC(=O)N[C@@H](CCC(=O)NCCCC[C@H](NC(=O)[C@H](CO)NC(=O)[C@H](CC(=O)O)NC(=O)[C@H](CC(C)C)NC(=O)[C@H](Cc1ccc(O)cc1)NC(=O)[C@@H](NC(=O)[C@H](CO)NC(=O)[C@H](Cc1ccc(O)cc1)NC(=O)[C@H](CC(=O)O)NC(=O)[C@H](CO)NC(=O)[C@@H](NC(=O)[C@H](Cc1ccccc1)NC(=O)[C@@H](NC(=O)CNC(=O)[C@H](CCC(=O)O)NC(=O)C(C)(C)NC(=O)[C@@H](N)Cc1ccc(O)cc1)[C@@H](C)O)[C@@H](C)O)[C@@H](C)CC)C(=O)N[C@@H](C)C(=O)N[C@@H](C)C(=O)N[C@@H](Cc1c[nH]cn1)C(=O)N[C@@H](CC(=O)O)C(=O)N[C@@H](Cc1ccccc1)C(=O)N[C@H](C(=O)N[C@@H](CCC(=O)O)C(=O)N[C@@H](Cc1c[nH]c2ccccc12)C(=O)N[C@@H](CC(C)C)C(=O)N[C@@H](CC(C)C)C(=O)N[C@@H](CCCNC(=N)N)C(=O)N[C@@H](C)C(N)=O)C(C)C)C(=O)O) [Compound 47] | 96 | 140
8 | H-Y[Aib]EGTFTSDYSIYLDEK([γGlu-Palmitoyl])AAKDFVEWLESA-NH2 (SMILES CCCCCCCCCCCCCCCC(=O)N[C@@H](CCC(=O)NCCCC[C@H](NC(=O)[C@H](CCC(=O)O)NC(=O)[C@H](CC(=O)O)NC(=O)[C@H](CC(C)C)NC(=O)[C@H](Cc1ccc(O)cc1)NC(=O)[C@@H](NC(=O)[C@H](CO)NC(=O)[C@H](Cc1ccc(O)cc1)NC(=O)[C@H](CC(=O)O)NC(=O)[C@H](CO)NC(=O)[C@@H](NC(=O)[C@H](Cc1ccccc1)NC(=O)[C@@H](NC(=O)CNC(=O)[C@H](CCC(=O)O)NC(=O)C(C)(C)NC(=O)[C@@H](N)Cc1ccc(O)cc1)[C@@H](C)O)[C@@H](C)O)[C@@H](C)CC)C(=O)N[C@@H](C)C(=O)N[C@@H](C)C(=O)N[C@@H](CCCCN)C(=O)N[C@@H](CC(=O)O)C(=O)N[C@@H](Cc1ccccc1)C(=O)N[C@H](C(=O)N[C@@H](CCC(=O)O)C(=O)N[C@@H](Cc1c[nH]c2ccccc12)C(=O)N[C@@H](CC(C)C)C(=O)N[C@@H](CCC(=O)O)C(=O)N[C@@H](CO)C(=O)N[C@@H](C)C(N)=O)C(C)C)C(=O)O) [Compound 48] | 61 | 41
